Here are results for 3 substances from publication PMC9988990.

Common to all, as to experiment: SEC; Superose 6 10/300 in 10 mM Tris, 100 mM NaCl, pH 8.0, after StrepTactin affinity purification; peak of the trimeric ectodomain
For orientation: In gel filtration, larger molecules generally elute earlier.

Assay [1] concerns the target recombinant gorilla GII FV Env ectodomain variant mut1 (K342A/R343A) (simian foamy virus, gorilla (genotype II)).
In assay [2] the target is recombinant gorilla GII FV Env ectodomain, wild type (simian foamy virus, gorilla (genotype II)).
Assay [3] concerns the target recombinant gorilla GII FV Env ectodomain variant mut2 (R356A/R369A) (simian foamy virus, gorilla (genotype II)).

For orientation: stoichiometry N means a count of units in the complex or per binding partner.

Consider “recombinant gorilla GII FV Env ectodomain variant mut1 (K342A/R343A) (domain or fragment)”, for which the stoichiometry N in assay [1] was found to be 3.

With “recombinant gorilla GII FV Env ectodomain, wild type (domain or fragment)”, in assay [2], the stoichiometry N turned out to be 3.

With “recombinant gorilla GII FV Env ectodomain variant mut2 (R356A/R369A) (domain or fragment)”, the stoichiometry N in assay [3] was 3.
